Measured values from publication PMC6846478.
Substitutions are numbered along the chain they refer to.

Columns and labels:
NLuc-P54nrb full length [1] = target: T1, NLuc-P54nrb full length (human, UniProt Q15233 1-471); test: competition
T1 sequence: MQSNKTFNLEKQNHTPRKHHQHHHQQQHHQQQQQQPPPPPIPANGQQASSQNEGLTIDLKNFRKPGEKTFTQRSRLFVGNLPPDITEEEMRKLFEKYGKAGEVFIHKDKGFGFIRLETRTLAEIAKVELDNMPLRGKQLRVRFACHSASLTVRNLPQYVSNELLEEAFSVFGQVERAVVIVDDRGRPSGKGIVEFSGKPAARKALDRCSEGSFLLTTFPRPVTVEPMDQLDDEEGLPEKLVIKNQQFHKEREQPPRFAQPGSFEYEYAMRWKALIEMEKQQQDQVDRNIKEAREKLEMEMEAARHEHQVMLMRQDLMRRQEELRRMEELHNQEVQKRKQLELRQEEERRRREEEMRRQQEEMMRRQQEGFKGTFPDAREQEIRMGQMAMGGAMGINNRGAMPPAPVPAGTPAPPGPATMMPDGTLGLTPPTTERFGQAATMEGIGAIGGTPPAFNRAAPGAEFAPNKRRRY

NLuc-P54nrb full length [2] = target: T1, NLuc-P54nrb full length; test: NanoBRET
RNase H1 HBD K59A,K60A = target: T2, RNase H1 HBD K59A,K60A (human, UniProt O60930 1-80, K59A;K60A); test: NanoBRET
T2 sequence: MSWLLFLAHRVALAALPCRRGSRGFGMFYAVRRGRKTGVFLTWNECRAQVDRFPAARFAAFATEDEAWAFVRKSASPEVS

RNase H1 CAT N151A = target: T3, RNase H1 CAT N151A (human, UniProt O60930 81-286, N151A); test: NanoBRET
T3 sequence: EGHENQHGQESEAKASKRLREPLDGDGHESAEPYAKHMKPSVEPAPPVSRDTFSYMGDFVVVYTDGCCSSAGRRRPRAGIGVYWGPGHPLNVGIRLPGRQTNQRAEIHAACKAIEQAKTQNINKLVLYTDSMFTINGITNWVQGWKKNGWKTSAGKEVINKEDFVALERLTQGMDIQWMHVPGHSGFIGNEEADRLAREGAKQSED

RNase H1 CAT R179A = target: T4, RNase H1 CAT R179A (human, UniProt O60930 81-286, R179A); test: NanoBRET
T4 sequence: T3 sequence with A71N, R99A

B1: PO DNA (ssDNA)
DNA: CTGCTAGCCTCTGGATTTGA
B1: no binding (NLuc-P54nrb full length [1]).

B2: ASO 766638 (2'-F gapmer) (XNA)
DNA: CTGCTAGCCTCTGGATTTGA
modifications: full PS; 5-10-5 gapmer, 2'-F wings, DNA gap
In the case of B2, the Kd (NLuc-P54nrb full length [2]) is reported as about 3 nM.

B3: PO DNA/RNA heteroduplex (DNA:RNA)
DNA: CTGCTAGCCTCTGGATTTGA
RNA: UCAAAUCCAGAGGCUAGCAG
B3 was tested, and the binding signal (RNase H1 HBD K59A,K60A) was about 10 fold weaker than WT HBD, the binding signal (RNase H1 CAT N151A) was over 7 fold weaker than WT CAT and the binding signal (RNase H1 CAT R179A) was over 2 fold weaker than WT CAT.

B4: PO RNA (ssRNA)
RNA: CUGCUAGCCUCUGGAUUUGA
B4: no binding (NLuc-P54nrb full length [1]).
